These are literature values, as cited in publication PMC13312411.

Where two headings read alike, the source gives them in different places.

The target in data set [1] is Hsc70 (Homo sapiens) (UniProt P11142).
Data set [2] has the same target. This is another data set of the same source.

Chain of UniProt P11142 (P11142 2-646): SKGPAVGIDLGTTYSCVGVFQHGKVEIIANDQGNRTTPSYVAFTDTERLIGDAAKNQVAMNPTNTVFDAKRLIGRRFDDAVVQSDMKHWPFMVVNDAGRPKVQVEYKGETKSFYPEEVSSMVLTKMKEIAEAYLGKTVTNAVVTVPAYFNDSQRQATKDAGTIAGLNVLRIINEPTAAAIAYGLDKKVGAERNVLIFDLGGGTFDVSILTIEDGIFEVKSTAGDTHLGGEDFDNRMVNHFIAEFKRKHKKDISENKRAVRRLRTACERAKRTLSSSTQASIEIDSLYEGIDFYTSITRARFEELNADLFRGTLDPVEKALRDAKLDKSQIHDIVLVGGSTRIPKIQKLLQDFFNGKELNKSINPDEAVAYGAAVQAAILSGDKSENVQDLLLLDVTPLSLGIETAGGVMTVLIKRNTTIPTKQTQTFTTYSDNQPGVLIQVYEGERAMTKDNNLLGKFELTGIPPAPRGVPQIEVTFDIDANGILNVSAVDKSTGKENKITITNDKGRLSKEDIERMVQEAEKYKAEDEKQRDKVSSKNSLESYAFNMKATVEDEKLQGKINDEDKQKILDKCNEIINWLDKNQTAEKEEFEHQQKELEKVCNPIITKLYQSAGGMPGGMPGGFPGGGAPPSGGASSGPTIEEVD

Consider “DNAJB6 J-domain JD (from UniProt O75190)”, for which, in data set [1], the Kd (commonly the constant that tells how readily two partners part at equilibrium) was 3 µM.

As to “DNAJB6 JD-GF (open) JD-GF (from UniProt O75190)”, the Kd in data set [2] is 400 µM.
